Experimental data as given in patent US20220332791A1 (ALIVEGEN, published 2022).
Numbering of substitutions follows the chain as printed. Blank lines part the entries; values can stand above or below the binder they belong to.

Tests used:
[1] = biological target: T1, activin A (UniProt P08476 311-426); assay: KinExA, activin A-coupled Sepharose beads, trap held constant and ligand titrated
T1 construct: also called recombinant activin A
T1 sequence (looked up): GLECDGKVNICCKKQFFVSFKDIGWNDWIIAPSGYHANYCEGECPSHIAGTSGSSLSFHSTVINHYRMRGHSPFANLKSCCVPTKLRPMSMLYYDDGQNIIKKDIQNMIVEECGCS
Protocol: (§1) AG-0014 and AG-0027 were analyzed by kinetic exclusion assay (KinExA) (Sapidyne Instruments, Inc.). 20-30 μg/ml of myostatin, activin A or BMP-9 was separately coupled to NHS-Activated Sepharose 4 Fast Flow beads (GE Healthcare) using experimental procedures recommended by Sapidyne Instruments. The concentration for each hybrid ActRIIB ligand trap protein was held constant as the ligand was titrated in a 2.5-fold serial dilution. Solutions were allowed to reach equilibrium by incubation at room temperature up to 24 hours and subsequently passed through a flow cell pre-packed with ligand-coated Sepharose beads on a KinExA 3000 machine (Sapidyne Instruments). The free hybrid ActRIIB ligand trap proteins captured on the beads was detected by Alexa Fluor 647-labeled goat anti-human-Fc antibody (Jackson ImmunoResearch Laboratories, Inc.). The ligand binding affinity values (KD) were calculated using the KinExA Pro software (Sapidyne Instruments).

[2] = biological target: T2, myostatin (UniProt O14793 267-375); assay: Octet Red BLI, trap on AHC biosensors, 10 nM myostatin; legend: +++ KD < 10^-8M
T2 construct: also called GDF-8; recombinant myostatin
T2 sequence (looked up): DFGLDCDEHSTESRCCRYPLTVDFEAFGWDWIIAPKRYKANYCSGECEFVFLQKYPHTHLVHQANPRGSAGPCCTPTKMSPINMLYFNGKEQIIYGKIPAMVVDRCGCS
Protocol: (§2) Myostatin and BMP9 binding activities of various hybrid ActRIIB ligand trap proteins were initially analyzed using Octect Red (ForteBio). Purified proteins or conditioned media were individually loaded to AHC biosensors with maximum loading. Following a baseline washing phase, the sensors were exposed to 10 nM myostatin or BMP9, respectively, for an association step followed by a dissociation step. All experiments were performed with shaking at 1,000 rpm. Binding activity was analyzed using ForteBio's software with KD being calculated using the ratio Kd/Ka.

[3] = biological target: T3, BMP9 (UniProt Q9UK05 320-429); assay: cell-based or functional assay
T3 sequence (looked up): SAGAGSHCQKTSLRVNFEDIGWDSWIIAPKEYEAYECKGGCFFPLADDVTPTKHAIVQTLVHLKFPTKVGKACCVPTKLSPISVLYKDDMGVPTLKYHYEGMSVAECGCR

[4] = biological target: T3, BMP9; assay: Octet Red BLI, trap on AHC biosensors, 10 nM BMP9; legend: +++ KD < 10^-8M
Protocol: as §2

[5] = biological target: T1, activin A; assay: cell-based or functional assay
[6] = biological target: T3, BMP9; assay: cell-based or functional assay; remark: listed apart in the source
[7] = biological target: T2, myostatin; assay: cell-based or functional assay
[8] = biological target: T1, activin A; assay: cell-based or functional assay; remark: listed apart in the source
[9] = biological target: T4, activin B (UniProt P09529 293-407); assay: cell-based or functional assay
T4 sequence (looked up): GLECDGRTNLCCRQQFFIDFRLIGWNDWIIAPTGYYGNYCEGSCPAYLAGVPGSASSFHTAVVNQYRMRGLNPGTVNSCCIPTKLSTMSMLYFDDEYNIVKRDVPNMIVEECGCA

[10] = biological target: T2, myostatin; assay: KinExA, myostatin-coupled Sepharose beads, trap held constant and ligand titrated
Protocol: as §1

[11] = biological target: T3, BMP9; assay: KinExA, BMP-9-coupled Sepharose beads, trap held constant and ligand titrated
Protocol: as §1

[12] = biological target: T2, myostatin; assay: cell-based or functional assay; remark: listed apart in the source
[13] = biological target: T3, BMP9; assay: Octet Red BLI, trap on AHC biosensors, 10 nM BMP9; legend: ++ KD: 10^-6 - 10^-7M
Protocol: as §2

[14] = biological target: T3, BMP9; assay: Octet Red BLI, trap on AHC biosensors, 10 nM BMP9; legend: + KD 10^-4 - 10^-6M
Protocol: as §2

KD [2]: < 10 nM
KD [13]: 100 to 1000 nM
B4: hybrid ActRIIB ligand trap protein AG-0008 (SEQ ID NO: 10) (Fc fusion)
chain: ETRECIYYNANWELERTNQSGLERCEGEQDKRLHCYASWRNSSGTIELVKKGCWLDDFNCYDRQECVEKKDSPQVYFCCCEGNFCNERFTHLPEAGGPEVTYEPPPTAPTGGGGSESKYGPPCPPCP
notes: not shown: human Fc domain

Kd [1]: 0.00109 nM
KD [2]: < 10 nM
Cell-Based IC50 (nM) Against Myostatin, C2C12-CAGA-luc reporter [7]: 1.14 nM
Cell-Based IC50 (nM) Against Activin A, C2C12-CAGA-luc reporter [8]: 1.62 nM
Cell-Based IC50 (nM) Against Activin B, C2C12-CAGA-luc reporter [9]: 1.3 nM
Kd [10]: 0.00787 nM
B5: hybrid ActRIIB ligand trap protein AG-0027 (SEQ ID NO: 29) (Fc fusion)
chain: B4 chain with E28D, F58I, E68A, K69T, D71E, S72N
notes: also called Hybrid Trap A; Hybrid Trap; not shown: human Fc domain

Kd [1]: 0.000357 nM
KD [2]: < 10 nM
Cell-Based IC50 (nM) Against Myostatin, C2C12-CAGA-luc reporter [7]: 0.95 nM
Cell-Based IC50 (nM) Against Activin A, C2C12-CAGA-luc reporter [8]: 1.15 nM
Cell-Based IC50 (nM) Against Activin B, C2C12-CAGA-luc reporter [9]: 2.1 nM
Kd [10]: 0.00875 nM
B6: hybrid ActRIIB ligand trap protein AG-0014 (SEQ ID NO: 16) (Fc fusion)
chain: B4 chain with E26Y, E28D, Q29K, L33R, E68A, K69T, K70E, D71E, S72N
notes: also called Hybrid Trap B; not shown: human Fc domain

KD [2]: < 10 nM
KD [14]: 1000 to 100000 nM
B8: hybrid ActRIIB ligand trap protein AG-0007 (SEQ ID NO: 9) (Fc fusion)
chain: B4 chain with Q74E
notes: not shown: human Fc domain

Continued, binder first:

B1: wild-type ActRIIB-ECD-Fc fusion protein (Fc fusion)
chain: B4 chain with E68A, K69T, K70E, D71E, S72N
notes: also called WT ActRIIB-Fc; WT; not shown: human Fc domain
Kd [1]: 0.00138 nM
KD [2]: < 10 nM
IC50 (read off the curve) (BMP9-induced luciferase, C2C12-BRE-luc reporter cells) [3]: ~10 nM
KD [4]: < 10 nM
IC50 (read off the curve) (activin A-induced luciferase, C2C12-CAGA-luc reporter cells) [5]: ~4 nM
Cell-Based IC50 (nM) Against BMP9, C2C12-BRE-luc reporter [6]: 3.4 nM
Cell-Based IC50 (nM) Against Myostatin, C2C12-CAGA-luc reporter [7]: 1.24 nM
Cell-Based IC50 (nM) Against Activin A, C2C12-CAGA-luc reporter [8]: 1.27 nM
Cell-Based IC50 (nM) Against Activin B, C2C12-CAGA-luc reporter [9]: 1.04 nM
Kd [10]: 0.00506 nM
Kd [11]: 0.00425 nM

B2: hybrid ActRIIB ligand trap protein AG-0003 (SEQ ID NO: 5) (Fc fusion, not shown: a dimerising Fc or GST)
chain: B4 chain with F58I, Q64T, E65D, Q74E
KD [2]: < 10 nM
IC50 (read off the curve) (myostatin-induced luciferase, C2C12-CAGA-luc reporter cells) [12]: ~0.4 nM
IC50 (read off the curve) (activin A-induced luciferase, C2C12-CAGA-luc reporter cells) [5]: ~10 nM
KD [13]: 100 to 1000 nM

B3: hybrid ActRIIB ligand trap protein AG-0006 (SEQ ID NO: 8) (Fc fusion)
chain: B4 chain with Q64T, E65D, Q74E
notes: not shown: human Fc domain
KD [2]: < 10 nM
KD [14]: 1000 to 100000 nM

B7: hybrid ActRIIB ligand trap protein AG-0005 (SEQ ID NO: 7) (Fc fusion, not shown: a dimerising Fc or GST)
chain: B4 chain with Q64T, E65D
KD [2]: < 10 nM
IC50 (read off the curve) (myostatin-induced luciferase, C2C12-CAGA-luc reporter cells) [12]: ~1 nM
IC50 (read off the curve) (activin A-induced luciferase, C2C12-CAGA-luc reporter cells) [5]: ~10 nM
KD [14]: 1000 to 100000 nM
